Measured values taken from patent US20220127377A1 (DIACCURATE, published 2022).

Molecular target: T1, human PLA2-GIB (mature, active form) (human, UniProt P04054 23-148)
T1 construct: Recombinant human PLA2GIB standard in the ELISA, and endogenous PLA2GIB of patient plasma in the functional assays; also called GIBsPLA2; sPLA2-GIB
Assay: sandwich ELISA, coated capture mAb, recombinant human standard
Method: Sandwich ELISAs specific to proPLA2-GIB, PLA2GIB or both forms were performed using mAbs previously generated. For the detection of proPLA2GIB, the #8G11 mAb was used as a capture antibody and the #1C11 mAb was used as a revelation mAb. For the detection of PLA2GIB, the #14G9 mAb was used as a capture antibody and the #1C11 mAb was used as a revelation mAb. For the detection of both forms, the #7A10 mAb was used as a capture antibody and the #1C11 mAb was used as a revelation mAb. Typical assay conditions were as follows: #8G11- or #14G9-coated microplate was incubated for one hour with recombinant human proPLA2GIB or PLA2GIB standards (varying concentrations of protein in assay buffer) to generate a calibration curve. EDTA plasma samples were diluted (5- to 50-fold) in dilution buffer to their respective wells and the ELISA plate was incubated for 1 h at room temperature. […] Following washing with PBS containing 0.05% Tween 20, the binding of mAb was detected by treatment with a Streptavidin-HRP conjugate for 15 min at room temperature. TMB was added, reaction was stopped and absorbance at 450 nm was determined on a microplate reader. Signals were analyzed with a 4-parameter fit analysis using Prism™ software (Graph Pad).

T1 sequence (P04054 23-148): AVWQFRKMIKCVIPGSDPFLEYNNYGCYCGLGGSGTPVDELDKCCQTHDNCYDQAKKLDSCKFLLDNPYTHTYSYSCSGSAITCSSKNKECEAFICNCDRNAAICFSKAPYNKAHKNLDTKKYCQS

B1: monoclonal antibody 14G9 (antibody, V domains shown)
VH: QVQLQQPGAELVKPGASVKLSCKASGYTFTNYWIHWVKRRPGQGLEWIGNIDPSDTRTHYNQKFKDKATLAVDKSSSTAYMQLSSLTSEDSAVFYCARQTLYYEALDYWGQGTTLTVSS
VL: DIVMTQSHKLMSTSVGDRVSITCKASQDVSTAVAWYQEKPGQSPKLLIYWASTRHTGVPNRFTGSRSGTDYTLTISSVQAEDLALYYCQQDYSTPPTFGAGTKLELKR
notes: also called #14G9 mAb; clone 14G9
  binding result: binds
